Measured values reported in publication PMC6908968 (Cell, 2019).

T1: thermolysin-cleaved EBOV GP on Jurkat-GP cells (cleaved GP) (Zaire ebolavirus, Makona (GP1 core …, strain))
T1 chain 1: not shown
T1 chain 2: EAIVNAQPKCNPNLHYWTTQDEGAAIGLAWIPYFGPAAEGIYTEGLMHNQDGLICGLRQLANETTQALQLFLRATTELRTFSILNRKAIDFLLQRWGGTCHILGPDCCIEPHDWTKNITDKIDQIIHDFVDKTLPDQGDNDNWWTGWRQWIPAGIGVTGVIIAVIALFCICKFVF


Columns and labels:
[1] = biological target: EBOV GP ectodomain residues 1-636 (GPec) (Zaire ebolavirus, strain  …, UniProt Q05320)
[2] = biological target: T1, thermolysin-cleaved EBOV GP on …

Binder	binding result [1]	binding result [2]
5.6.c2685 (antibody, V domains shown) VH: EVQLVESGGGLVQPGGSLRLSCAASGFTFSRSWMNWVRQAPGKGLEWVANIKQDGSEKYYVDSVKGRFTISRDNAKNSLYLQMNSLRAEDTGVYYCAKATVTTELTFFYYYALDVWGQGTTVTVSS VL: EIVMTQSPATLSVSPGERATLSCRASQSINNNLAWYQQKPGQAPRLLISDASTRATGVPARFSGSGSGTEFTLTISSLQSEDSAVYHCQQYNTWPPFTFGGGTKVEIK	binds	binds
5.6.c3955 (antibody, V domains shown) VH: EVQLVESGGGLVQPGGSLRLSCAASGFTFSTYSMNWLRQAPGKGLEWISFISIRSTTTYYADSVKGRFTISRDDAKNSLYLQMNSLRDEDTAVYYCARVYMRTFYFDNWGQGTLVTVSS VL: QSALTQPASVSGSPGQSITISCTGTSSDVGDYNYVSWYQQHPGKAPKLLIFDVSNRPSGVSNRFSGSKSGNTASLTISGLQAEDEADYYCSSYASSRTSWVFGGGTKLTVL	binds	
5.6.c2460 (antibody, V domains shown) VH: QLQLQESGPGLVKPSETLSLSCSVSGGSISSSDDHWGWIRQSPGKGLEWIGSVSYSGSVYYNPSLKSRVTISVDTSKTQFSLRLRSVTAADTAVYNCARHRSDQMLFYWFDPWGQGTLVTVSS VL: ETLMTQSPATLSVTPGESATLSCRASQTISSSLAWFQQKPGQAPRLLIHGASTRATGIPARFSGSGSGTEFTFTISSLQSEDFAVYFCQQYHNWPPTFGQGTKVEIK	binds	binds
5.6.c2627 (antibody, V domains shown) VH: QVQLVQSGAEVKKPGSSVKVSCKASGGTFSTYGFIWVRQAPGQGLDWMGGIIPIFDKTNYGQRFQGRVTITADKSTSTVHMELSSLRSEDTAVYYCARCRSGFKDPSGYFYYAMDVWGQGTTVTVSS VL: not shown	binds	binds
5.6.c2455 (antibody, V domains shown) VH: QVQLVESGGGVVQPGRSLRLSCAASGFTFSSYAIHWVRQAPGKGLEWVAVISDDGNHKYYADSVKGRFTISRDNSKNTLFLQMNSLRPEDTAVYYCAKNRLVFGVIWFYDMDVWGQGTTVTVSS VL: QSVLTQPPSVSAAPGQKVTISCSGSSSNIGNNYVSWYQQLPGSAPKLLIYDNNKRPSGIPDRFSGSKSGTSATLDITGLQTGDEADYYCGTWDTSLRGVFGGGTKLTVL	binds	binds
5.6.c2609 (antibody, V domains shown) VH: QVQLVESGGGVVQPGRSLRLSCAASGIAFSNYAMHWVRQAPGKGLEWVALISSDARDQYYADSVKGRFTISRDNSKSTLYLEMNSLTSEDTAIYYCASDTSSHYSSLLYNWFDSWGQGSLVTVSS VL: DIQMTQSPSSLSASVGDRVTITCRAIQSISTFLNWYQHKPGKAPKVLIYGASNLQSGVPSRFSGSGSGTDFTLTISSLQPEDFATYYCQQSYNTPFTFGPGTKVDIK	binds	binds
5.6.c2518 (antibody, V domains shown) VH: EVQLVESGGGVVQPGGSLKLSCAASGFTFDDHAMHWVRQAPGKGPEWVSLISWDGANSYYANSVRGRFTVSRDNSKNSLFLQMNSLRTEDTALYYCARDLHNYAFWSGYPDYWGRGTLVTVSS VL: DIQLTQFPSSLSASVGDRVVITCRASQSISSSLNWYQQKPGNAPQLLIYTVSSLYTGVPSRFSGSASGTDFTLTISSLRPEDFATYYCQQTHSVPYTFGQGTKLEIK	binds	binds
5.6.c2485 (antibody, V domains shown) VH: QVTLKESGPVLVKPTETLTLTCTVSGFSLSTARMGVGWIRQPPGKALEWLAHIFSDDEKSYSTSLKSRLTISKDTSKSQVVLTMTNMDPVDTATYYCARIQSSEWIYYYYGMDVWGQGTTVTVSS VL: DIQMTQSPSSVSASIGDTVTITCRASQDLSYWLAWYQQKPGKAPKLLIYAASSLQSGVPSRFSGSGSGTDFTLTISSLQPEDFATYYCQQAHSFPITFGQGTRLEIK	binds	binds
5.6.c2569 (antibody, V domains shown) VH: QVQLQESGPGLVKPSGTLSLTCAVSGGSISSPNWWSWVRQSPEKGLEWIGEVFHSGSTNYNPSLKSRATISVDNSKNQFSLRLTSVTAADTAIYYCARDLGWLVHGYFDPWGQGILVTVSS VL: EIVLTQSPGTLSLSPGERATLSCRAGQSVSSSYVAWYQQKPGQAPRLLIYDTSSRATGIPDRFSGSGSGTDFTLTISRLEPEDFAVYYCQQYGTSRTWTFGQGTRVEIK	binds	binds
5.6.c2481 (antibody, V domains shown) VH: QLQLQESGPGLVKPSETLSLTCTVSGGSISSSTYYWGWIRQPPGKGLEWIGSIFYRGITYYNPSLKSRVTISVDTSKNQFSLKLSSVTAADTAVYYCARGGVIVLMVYAIVPPDVWGQGTTVTVSS VL: QSALTQPASVSGSPGQSITISCTGSRSDVGGYNYVSWYQQHPGKAPKLMISDVSNRPSGVSNRFSGSKSGNTASLTISGLQAEDEADYYCSSYTSSSTVVFGGGTKLTVL	binds	binds
5.6.c2526 (antibody, V domains shown) VH: QVQLVESGGGVVQPGGSLRLACAASGFTFSNSGLHWIRQAPGKGLEWMTVISHDGNNKYYADSVKGRFTISRDNSENMLYLQMNSLRPEDTAVYYCARDRIRYSDWGVYYYYNGMDVWGQGTTVTVSS VL: QSVLTQPPSVSAAPGQKVTISCSGSISNIGNHYVSWYKQLPGTAPKVLIYDNNKRPSGIPDRFSGSKSGTSATLGLTGLQTGDEADYFCGTWDSSLSVWVFGGGTKLTVL	binds	binds
15.0.c888 (antibody, V domains shown) VH: QVQLVESGGGVVQPGRSLRLSCAASGFTFSSYGMHWVRQAPGKGLEWVAVISYDGSNEYHADSVKGRFTISRDNSKNTLYLQMNSLRPEDTAVYYCAKGARSSSSLDLYYYYYYMDVWGKGTTVTVSS VL: not shown	binds	binds
15.0.c770 (antibody, V domains shown) VH: QVHLVESGGGVVQPGRSLRLSCAVSGFTFSSCGMHWVRQAPGKGLEWVAVISYDGSDKYYADSVKGRFTISRDNSNNTLYLQMNSLSIEDTAVYYCAKDYYYGSGSDLYYYYYGMDVWGLGTTVTVSS VL: EIVLTQSPGTLSLSPGDRATLSCRASQSVSSTYLAWYQQKPGQAPRLLIYGASSRATGIPDRFSGSGSGTDFTLTISRLEPEDFAVYYCQQYVTSPYSFGQGTKLEIK	binds	binds
5.6.c2682 (antibody, V domains shown) VH: QVQLVESGGGVVQPGRSLRLSCAASGFTFSNYAMHWVRQAPGKGLEWVAVTSDDKDNRYYADSVKGRFIISRDNSKNTLYLQMNSLRAEDTAVYHCAKDFEVFSSIFNGAYDSWGQGTLVIVSS VL: EVVMTQSPATLSVSPGERATLSCRASQSVGFNLAWYQQKPGQAPRLLIYDASTRATGIPARFSGSGSGTEFTLTISSLQSGDFAVYYCQQYNNWPPYTFGQGTKLEIK	binds	binds
5.6.c2644 (antibody, V domains shown) VH: QVQLVQSGAEVKKPGASVKVSCKASGYTFSNYGITWVRQAPGQGLEWMGWISAYNGNTKYAQKVQGRVTLSTDTSTSTAYMELRSLRSDDTAIYYCARDPGMITPGGVIEHWGQGTLVTVSS VL: DIQMTQSPSSLSASVGDRVTVTCRASQGISNYLAWYQQKPGKVPKLLIYAASTLHSGVPSRFSGSGSGTDFTLTISSLQPEDVATYVCHNYNNAPRTFGQGTKVEIK	binds	binds
5.6.c2636 (antibody, V domains shown) VH: QVQLVQSGAEVKKPGASVKVSCKASGYTFTDYYMHWVRQAPGQGLEWLGIIIPTGTLSYAQKFQGRVTMTSDTSTNTFYMELRSLRSEDTAVYFCAREKSRDFDWELFDYWGQGTLVTVSS VL: QSVLTQPPSASGTPGQRITISCSGSSSNIGNNAVSWYQQIPGMAPKLLIYSSNQRPSGVPDRFSGSKSGTSASLAISGLQSEDETDYYCAAWDDSLNGPVFGGGTKVTVL	binds	binds
5.6.c2670 (antibody, V domains shown) VH: QVQLEQWGAGLLKPSETLSLTCGVNGGSFSGSYWIWIRQSPGKGLEWIGEISHSGSTNSNPSLKSRVTISVDTSKNHFSLTLSSVTAADTAVYYCATSTLDSSSVFYYSYGLDVWGQGTTVTVSS VL: DIQMTQSPSSVSASVGDRVTITCRASQDISSWLAWYQQKPGRAPNLLIYAASSLLSGVPSRFSGSGSGTDFTLTISSLQPGDSATYYCQQGHSLPLTFGGGTKVEIR	binds	binds
15.0.c775 (antibody, V domains shown) VH: EEQLLESGGGLVQPGGSLRLSCAASGFTFSGYDMSWVRQAPGKGLEWVSLLSWSGDAKYYADSVKGRFTISRDNSKNTLYLQMNSLRAEDTAVYYCAGDSSGYNNERLYYTYYMDVWGKGTTVTVSS VL: DIQMTQSPSSVSASVGDRVTITCRANQAISSWLAWYQQKPGKAPKLLISAASSLQSGVPPRFSGSGSGTDFTLTISSLQPEDFATYYCQQANSFPLTFGGGTKVEIK	binds	binds
5.6.c2633 (antibody, V domains shown) VH: EVQLVQSGGGLVQPGGSLTLSCAASGFTFTDHWIHWVRQAPGKGLEWVANVKPDGSEKYYVDSVKGRFTISRDNAKKSLSLQMNSLRADDTAVYYCARSQLEGLGDLFYYNFGLDVWGQGTTVTVSS VL: EIVMTQSPATLSVSPGERATLSCRASQSVNSNLAWYQQKPGQAPRLLIYGASTRATGIPARFSGRGSGTDFTLTISSLQSEDFALYYCQQYNTWPPLTFGGGTKVEIN	binds	binds
5.6.c2517 (antibody, V domains shown) VH: QVQLQQWGAGLLKPSETLSLSCSVYPGSFSGYYWAWIRQPPGKGLEWIGEINHSGSTKYNPSLKSRVTISIDTSKNQLSLKMSSVTAADSAVYYCASLTRSSWFRAFDYWGQGTLVTVSS VL: QSALTQPASVSGSPGQSITISCTGSSSDIGGYDYVSWYQQHPGKAPKLMIFDVSDRPSGVSNRFSGSKSGNTASLTISGLQPEDEADYYCSSYTSISSSYVFGTGTKVTVL	binds	binds
